Test results reported in patent publication US20240100133A1, “ENZYMATICALLY INACTIVE GRANZYME A AND USES THEREFORE” (Saint Louis University, priority 2022, published 2024).

Assays:
[1] = molecular target: TLR4 (Homo sapiens, UniProt O00206); test: Immunoprecipitation with anti-GzmA, probed for TLR4; settings: human monocyte lysates, infected and uninfected cells
[2] = molecular target: T1, CD14 (Homo sapiens, UniProt P08571); test: Immunoprecipitation with anti-GzmA, probed for CD14; settings: human monocyte lysates, infected and uninfected cells
T1 sequence (P08571 20-345): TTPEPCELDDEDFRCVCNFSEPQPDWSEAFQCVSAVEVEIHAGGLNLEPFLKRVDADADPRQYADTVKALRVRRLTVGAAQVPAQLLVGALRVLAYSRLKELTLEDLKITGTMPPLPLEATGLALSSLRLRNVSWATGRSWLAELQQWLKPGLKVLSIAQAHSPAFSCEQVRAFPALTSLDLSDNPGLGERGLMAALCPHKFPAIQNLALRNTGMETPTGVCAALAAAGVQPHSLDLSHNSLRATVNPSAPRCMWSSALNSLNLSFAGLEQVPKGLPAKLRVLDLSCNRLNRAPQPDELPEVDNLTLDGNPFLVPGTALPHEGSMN

[3] = tested on: human monocytes infected with BCG-GFP; test: Phagocytic score, BCG-GFP uptake by monocytes; settings: 2 h of infection with BCG-GFP
Method: Monocytes were treated or not with GzmA, after which BCG-GFP was used to infect cells for 2 hours. Cells were then washed twice with FACS buffer and processed by flow cytometry. The phagocytic score was measured as previously described (Ackerman et al., 2011).

[4] = tested on: Connaught BCG within primary CD14+ human monocytes; assay type: cell-based
[5] = tested on: Mtb H37Rv within primary CD14+ human monocytes; assay type: cell-based, Mycobacterium tuberculosis
[6] = tested on: mycobacteria within iMac CD14KO cells; test: MGIA in iMac CD14KO cells; assay type: cell-based, mouse
[7] = tested on: mycobacteria within iMac-WT mouse cells; assay type: cell-based; settings: human GzmA on mouse iMac-WT cells
[8] = tested on: Rab11-FIP1; test: Quantitative shotgun proteomics of treated and infected monocytes; assay type: cell-based, human; settings: 200 nM GzmA, infected cells (MOI=3), overnight
Method: Quantitative shotgun proteomics. 1.5e5 human monocytes were either treated or not with 200 nM GzmA, and infected or not with mycobacteria (MOI=3) overnight. After incubation, cells were then washed thrice with PBS, and the pellet lysed using lysis buffer from EasyPep Mini MS Sample Prep Kit (Cat #A40006, Thermo-Fisher, Waltham, MA) supplemented with 1:100 HALT phosphatase inhibitor (Cat #78420, Thermo-Fisher, Waltham, MA). Lysis, reduction/alkylation, protein digestion, and peptide clean-up were performed according to EasyPep recommendations. […] After peptide cleanup, samples were dried using a vacuum centrifuge, and then resuspended in 0.1% formic acid in water for LC-MS analysis. The samples were analyzed on a Q-Exactive orbitrap MS/MS equipped with a nanospray emitter (Thermo Fisher Scientific, Waltham, MA). Nanospray parameters in positive ion mode were as follows: spray voltage, 2.0 KV; capillary temperature, 320° C.; S-lens RF level, 55. […] The MS/MS spectra were analyzed using Sequest HT and MSPepSearch, both integrated in Proteome Discoverer 2.4.1.15 (Thermo Scientific, MA). […] Finally, the results were subjected to statistical analysis using percolator node where the False discovery rate (FDR) was calculated using a decoy database search and only high confidence peptide identifications with FDR 0.01 were included. […]

Sequence of TLR4 (O00206 24-839): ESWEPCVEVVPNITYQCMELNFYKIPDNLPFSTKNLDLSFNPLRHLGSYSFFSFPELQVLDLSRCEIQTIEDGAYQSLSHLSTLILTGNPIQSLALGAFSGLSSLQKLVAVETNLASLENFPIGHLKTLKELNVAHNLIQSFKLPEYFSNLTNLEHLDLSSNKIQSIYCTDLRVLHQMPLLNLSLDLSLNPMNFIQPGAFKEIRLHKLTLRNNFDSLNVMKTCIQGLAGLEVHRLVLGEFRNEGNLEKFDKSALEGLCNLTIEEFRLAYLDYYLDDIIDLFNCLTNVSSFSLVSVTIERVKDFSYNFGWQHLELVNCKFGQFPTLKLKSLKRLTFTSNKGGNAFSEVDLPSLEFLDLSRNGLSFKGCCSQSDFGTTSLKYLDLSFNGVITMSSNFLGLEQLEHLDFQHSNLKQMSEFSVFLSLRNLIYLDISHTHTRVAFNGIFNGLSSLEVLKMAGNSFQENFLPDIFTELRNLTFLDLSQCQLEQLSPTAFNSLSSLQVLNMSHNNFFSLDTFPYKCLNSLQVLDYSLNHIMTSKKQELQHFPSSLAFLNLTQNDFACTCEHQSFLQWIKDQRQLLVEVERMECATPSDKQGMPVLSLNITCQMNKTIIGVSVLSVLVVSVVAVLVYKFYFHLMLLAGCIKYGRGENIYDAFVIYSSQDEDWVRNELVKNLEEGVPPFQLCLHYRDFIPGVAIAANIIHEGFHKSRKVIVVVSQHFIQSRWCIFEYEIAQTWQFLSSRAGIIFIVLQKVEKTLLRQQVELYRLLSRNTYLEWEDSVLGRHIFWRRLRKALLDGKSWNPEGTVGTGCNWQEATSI

B1: GzmA-WT: recombinant wild-type human Granzyme A, homodimeric serine protease, purified from HEK293T supernatants (protein)
chain: IIGGNEVTPHSRPYMVLLSLDRKTICAGALIAKDWVLTAAHCNLNKRSQVILGAHSITREEPTKQIMLVKKEFPYPCYDPATREGDLKLLQLMEKAKINKYVTILHLPKKGDDVKPGTMCQVAGWGRTHNSASWSDTLREVNITIIDRKVCNDRNHYNFNPVIGMNMVCAGSLRGGRDSCNGDSGSPLLCEGVFRGVTSFGLENKCGDPRGPGVYILLSKKHLNWIIMTIKGAV
modifications: left off: small tags and cut ends
notes: recombinant wild-type human Granzyme A, homodimeric serine protease, purified from HEK293T supernatants
binding to TLR4 (immunoprecipitation) [1]: bound to GzmA-WT | binding to CD14 (immunoprecipitation) [2]: bound to CD14 | phagocytic score [3]: higher phagocytic score compared to untreated cells | GzmA inhibitory activity after CD14 neutralization (MGIA) [4]: lost their inhibitory activity | GzmA inhibitory activity after TLR2 neutralization (MGIA) [4]: does not reverse | GzmA inhibitory activity after TLR4 neutralization (MGIA) [4]: reversed GzmA-mediated mycobacterial growth inhibition | intracellular replication of pre-opsonized mycobacteria (excess protein removed) [4]: reduced intracellular replication capacity | mycobacterial growth inhibition, GzmA added prior to or during infection [4]: maximal inhibitory effects | mycobacterial growth inhibition, GzmA added to already infected cells [4]: did not mediate inhibition | inhibition of intracellular mycobacterial replication (MGIA) ([4]; 72 h): inhibits the intracellular replication of mycobacteria | inhibition of intracellular Mtb (MGIA) ([5]; 200 nM GzmA, Mtb MOI 1, human monocytes): inhibited Mtb | GzmA inhibitory activity after CD14 neutralization, Mtb ([5]; Mtb-infected monocytes, anti-CD14): reversed GzmA-mediated mycobacterial growth inhibition | GzmA inhibitory activity after TLR4 neutralization, Mtb ([5]; Mtb-infected monocytes, anti-TLR4): reversed GzmA-mediated mycobacterial growth inhibition | inhibition of intracellular mycobacterial growth in CD14-deficient iMac cells [6]: incapable of inhibiting intracellular mycobacterial growth | inhibition of mycobacterial growth in iMac-WT cells [7]: modestly inhibit mycobacterial growth | Rab11-FIP1 protein level [8]: upregulated
